According to patent US20250101074A1 (Affibody, published 2025):

Key:
Test in all cases: SPR (Biacore), PEP07843 immobilized, analyte protein injected
[1] = target: T1, IL-17RA (UniProt Q96F46 33-320)
T1 sequence (looked up): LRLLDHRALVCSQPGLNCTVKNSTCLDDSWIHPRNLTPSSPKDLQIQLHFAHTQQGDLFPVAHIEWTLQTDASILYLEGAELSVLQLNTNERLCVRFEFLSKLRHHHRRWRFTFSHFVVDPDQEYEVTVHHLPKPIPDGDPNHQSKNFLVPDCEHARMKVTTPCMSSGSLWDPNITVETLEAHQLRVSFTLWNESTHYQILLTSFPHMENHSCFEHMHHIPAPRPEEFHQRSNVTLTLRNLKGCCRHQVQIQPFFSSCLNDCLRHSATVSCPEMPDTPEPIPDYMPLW
Experimental: (§1) In the binding experiment, HBS-EP was used as running buffer and the flow rate was 30 μl/min. […] The analytes, i.e. the panels of 24 or 12 different proteins, were each diluted in HBS-EP or HBS-EP supplemented with 500 mM NaCl to final concentrations of from 0.4 to 250 nM and injected for 5 min. […] The results were analyzed using the BiaEvaluation software.
(§2) The Z-ABD-Z polypeptides were injected over surfaces containing HSA followed by injection of the analyte proteins.

[2] = target: T2, human IL-17F (human, UniProt Q96PD4 31-163)
T2 construct: R&D Systems cat. no; 1335-IL/CF; also called hIL-17F
T2 sequence: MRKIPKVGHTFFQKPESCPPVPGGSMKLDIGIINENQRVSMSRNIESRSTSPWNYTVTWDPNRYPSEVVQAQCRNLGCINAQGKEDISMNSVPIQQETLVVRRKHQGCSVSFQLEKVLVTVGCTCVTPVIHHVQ
Experimental: as §1, §2

[3] = target: T3, hIL23 (human, UniProt Q9NPF7 20-189; P29460 23-328)
T3 construct: the two subunits are general knowledge
T3 sequence (looked up) 1: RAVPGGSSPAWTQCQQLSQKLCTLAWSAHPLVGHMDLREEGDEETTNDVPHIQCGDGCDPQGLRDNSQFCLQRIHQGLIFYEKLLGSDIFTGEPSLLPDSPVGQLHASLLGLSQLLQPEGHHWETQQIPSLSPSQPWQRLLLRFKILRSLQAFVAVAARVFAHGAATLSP
T3 sequence (looked up) 2: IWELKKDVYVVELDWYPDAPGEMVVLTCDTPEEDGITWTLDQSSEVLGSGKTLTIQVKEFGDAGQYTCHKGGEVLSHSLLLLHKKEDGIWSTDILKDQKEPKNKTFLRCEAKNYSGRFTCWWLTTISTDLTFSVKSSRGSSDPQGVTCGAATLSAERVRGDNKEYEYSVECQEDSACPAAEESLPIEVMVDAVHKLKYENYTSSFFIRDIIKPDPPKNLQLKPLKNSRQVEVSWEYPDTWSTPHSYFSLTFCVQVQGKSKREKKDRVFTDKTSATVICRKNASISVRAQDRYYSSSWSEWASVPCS
Experimental: as §1, §2

Measured: binding result

B1: ABD variant PEP07843 (designed binder)
chain: GSSLAEAKEAANAELDSYGVSDFYKRLIDKAKTVEGVEALKDAILAALP
no binding (tested: 50, 250 nM): all assays above
